Results taken from patent US20130224191A1, “NOTUM PROTEIN MODULATORS AND METHODS OF USE” (priority 2010, published 2013).
“Also recorded” adds a separate entry of the source.

Experiments:
[1] = molecular target: T1, Notum (Homo sapiens, UniProt Q6P988); test: 293.TCF assay with rhWnt3A, standard and preincubation protocol; type: cell-based
T1 sequence (Q6P988 20-496): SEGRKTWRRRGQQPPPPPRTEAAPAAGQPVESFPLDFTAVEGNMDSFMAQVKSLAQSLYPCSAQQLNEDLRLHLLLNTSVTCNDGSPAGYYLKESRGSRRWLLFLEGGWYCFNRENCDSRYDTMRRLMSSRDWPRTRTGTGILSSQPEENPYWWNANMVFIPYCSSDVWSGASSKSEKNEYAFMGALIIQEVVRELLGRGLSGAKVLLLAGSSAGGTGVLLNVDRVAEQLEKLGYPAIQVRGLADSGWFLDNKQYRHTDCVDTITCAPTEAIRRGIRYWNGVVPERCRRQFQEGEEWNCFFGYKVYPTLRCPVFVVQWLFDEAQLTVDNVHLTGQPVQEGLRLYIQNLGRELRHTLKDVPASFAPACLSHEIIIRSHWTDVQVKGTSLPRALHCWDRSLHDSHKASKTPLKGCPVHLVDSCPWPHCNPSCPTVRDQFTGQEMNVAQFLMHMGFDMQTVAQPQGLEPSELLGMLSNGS
Procedure: In order to determine the kinetics of Notum mediated antagonism of Wnt3A signaling, recombinant Notum alone or in the presence of SC2.D2.2 was preincubated with recombinant human Wnt3A (rhWnt3A) for 2 hours at 37° C., prior to addition of the complexes to 293.TCF cells. This resultant induction of luciferase by the rhWnt3A was compared to that observed using the standard protocol for the 293.TCF assay, in which Notum alone or Notum+SC2.D2.2 was added to the cells for two hours prior to the addition of rhWnt3A. […] Of interest however, is the preincubation of Notum and rhWnt3A prior to addition to the 293.TCF cells. In this case the response of the cells to rhWnt3A is reduced greatly (closed circles FIG. 27B).

[2] = molecular target: T2, human Notum D141N, D141S (Homo sapiens, UniProt Q6P988, D141N); test: Neutralization of point mutated human Notum, TCF assay; type: cell-based; conditions: human D141N or D141S
T2 construct: made in house
T2 sequence (Q6P988 20-496 D141N): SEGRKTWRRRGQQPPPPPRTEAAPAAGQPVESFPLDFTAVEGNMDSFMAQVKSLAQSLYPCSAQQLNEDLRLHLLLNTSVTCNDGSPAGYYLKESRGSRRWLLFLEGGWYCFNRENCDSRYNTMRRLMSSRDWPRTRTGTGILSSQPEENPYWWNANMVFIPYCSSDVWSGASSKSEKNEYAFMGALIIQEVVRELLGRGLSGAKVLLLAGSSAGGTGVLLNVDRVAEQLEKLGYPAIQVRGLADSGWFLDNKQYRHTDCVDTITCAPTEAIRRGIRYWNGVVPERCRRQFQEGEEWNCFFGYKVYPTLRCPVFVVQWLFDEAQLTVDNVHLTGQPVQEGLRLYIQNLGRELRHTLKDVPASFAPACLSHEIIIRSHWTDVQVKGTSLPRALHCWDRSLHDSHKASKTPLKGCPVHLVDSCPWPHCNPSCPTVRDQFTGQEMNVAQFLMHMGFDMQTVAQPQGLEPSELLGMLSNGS
Description: Similarly, the macaque residue at this position was point mutated to the human residue (N141D). […] However, these point mutants differed in their ability to be neutralized by SC2.D2.2 (FIG. 26).

[3] = system: macaque Notum-Fc; test: Neutralization of macaque Notum in 293.TCF assay; type: cell-based
Procedure: Using the 293.TCF cells, purified SC2.D2.2 and SC2.A106 antibodies were tested for their ability to neutralize murine Notum-His or macaque Notum-Fc activity as follows. 2.5×10^4 293.TCF cells were plated per well of a 96-well tissue culture plate in 50 μL of serum-free medium. After 23 hours of serum starvation, 10 μL of DMEM+0.2% FBS containing the Notum proteins at various concentrations were mixed with 15 μL of purified antibody at various concentrations, and allowed to incubate for 5 minutes at room temperature. The 25 μL antibody/Notum mixture was then added to the 293.TCF cells. After 1 hour, 25 μL of Wnt3A or control L-cell CM were added to each well. Eighteen hours after addition of CM, 100 μL of One-Glo solution (ProMega Corp.) was added to each well. The contents of each well were mixed thoroughly to lyse the cells, 100 μL of lysate transferred to black 96-well plates, and the luminescence read after 5 minutes.

[4] = molecular target: T3, porcine pancreatic lipase (Sus scrofa, UniProt P00591); test: Inhibition of porcine pancreatic lipase (Tween 20); type: biochemical
T3 construct: purchased Sigma Aldrich
T3 sequence (P00591 1-450): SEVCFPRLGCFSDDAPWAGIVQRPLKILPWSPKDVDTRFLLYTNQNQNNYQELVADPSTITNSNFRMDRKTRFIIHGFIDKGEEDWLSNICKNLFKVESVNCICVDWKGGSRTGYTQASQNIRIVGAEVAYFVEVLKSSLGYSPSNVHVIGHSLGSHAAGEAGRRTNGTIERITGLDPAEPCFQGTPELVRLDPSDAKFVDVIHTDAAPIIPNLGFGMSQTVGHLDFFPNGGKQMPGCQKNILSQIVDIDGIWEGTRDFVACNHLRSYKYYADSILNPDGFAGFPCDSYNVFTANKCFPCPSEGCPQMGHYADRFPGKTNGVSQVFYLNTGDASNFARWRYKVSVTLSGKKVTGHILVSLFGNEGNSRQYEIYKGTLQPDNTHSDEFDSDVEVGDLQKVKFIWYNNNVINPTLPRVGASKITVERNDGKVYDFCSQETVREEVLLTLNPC
Procedure: Briefly, recombinant hNotum (1 μg/well) was added to an assay buffer containing 50 mM Tris, pH 7.4, 33.3 mM CaCl2, and 0.33% Tween-20. When the Tween 20 monolauryl group is cleaved by lipases (e.g. hNotum), the free fatty acid forms an insoluble complex with the Ca^2+ cations resulting in a turbid solution, the OD of which can be measured at 405 nm to provide a measure of lipase activity. As a positive control, the activity of porcine pancreatic lipase (Sigma Aldrich) was measured in the same assay.
In order to take advantage of this enzymatic property and further exemplify the properties of the present invention, an assay was run to determine the effects of Notum modulators on the lipolytic activity of Notum. To that end, various concentrations of SC2.D2.2 were preincubated with hNotum for a set period prior to adding the mixture to the assay buffer and measuring the resulting enzymatic activity as described above. The results of the assay are graphically represented in FIG. 20

B1: SC2.D2.2 (antibody, V domains shown)
VH: DVQLVESGGGLVQPGGSRKISCAASGFTFSSYGMHWVRQAPEKGLEWVAYISSSTVTTYYADTVKGRFTISRDNANNTLFLQMTSLRSEDTAMYYCSRQNWDGGYFDVWGAGTTVTVSS
VL: DIVLTQSLASLAVSLGQRATISCRASKSVSSSGYSYMHWYQQKPGQPPKLLIYLASNLESGVPARFSGSGSGTDFTLNIHPVEEEDAATYYCQHSRALPLTFGAGTKLELKR
notes: also called murine SC2.D2.2
effect on response of cells to rhWnt3A ([1]; Notum complexed with antibody prior to preincubation with rhWnt3A, 2 hours at 37° C.): restores the sensitivity of the cells to rhWnt3A | effect on Notum antagonism of rhWnt3A ([1]; standard protocol, 10 μg/mL antibody, 250 ng/mL rhWnt3A): blocks the ability of Notum to antagonize the rhWnt3A | neutralization of mutant Notum protein [2]: eliminated the ability of SC2.D2.2 to neutralize the mutant Notum protein | inhibition of macaque Notum activity [3]: did not inhibit; also recorded: without inhibiting murine or macaque versions of the protein | effect on lipase activity of porcine pancreatic lipase [4]: not severely impacting the lipase activity
